Data set [1] deals with HER2 on MDA-MB-453 cells (Homo sapiens) (UniProt P04626). In words: cell binding, NIR fluorescence. To be noted: live cells, 5% FBS, 1 h, live adherent cells (1e4/well), 0.01-10 uM 5'-IRD800 aptamer in growth medium with 5% FBS, 37 C (or 4 C), buffer salt and pH not stated.
Data set [2] deals with HER2 on SK-BR-3 cells (Homo sapiens) (UniProt P04626). In words: cell binding, NIR fluorescence. The settings on record: live cells, 5% FBS, 1 h, live adherent cells (1e4/well), 0.01-10 uM 5'-IRD800 aptamer in growth medium with 5% FBS, 37 C (or 4 C), buffer salt and pH not stated.

pKd: −log10 of the molar value.

Turning to “CCGCCCAAACACACGTAAACAGATGAGGAGCCGACACTGGG [HMAP7 (M7)]”, the pKd is 6.59 in data set [1] and 6.46 in data set [2].

The record behind these values is publication PMC11042868.
